± gives the uncertainty stated by the source.
Experiment: self-splicing fitness, log relative to wild type (ln ratio); higher = more splicing; Tetrahymena group I intron in knt gene, E. coli kanamycin selection, DiMSum; sequences stand for … in CUCUCU…GGAGGGAAAAGUUAUCAGGCAUGCACCUGGUAGCUAGUCUUUAAACCAAUAGAUUGCAUCGGUUUAAAAGGCAAGACCGUCAAAUUGCGGGAAAGGGGUCAACAGCCGUUCAGUACCAAGUCUCAGGGGAAACUUUGAGAUGGCCUUGCAAAGGGUAUGGUAAUAAGCUGACGGACAUGGUCCUAACCACGCAGCCAAGUCCUAAGUCAACAGAUCUUCUGUUGAUAUGGAUGCAGUUCACAGACUAAAUGUCGGUCGGGGAAGAUGUAUUCUUCUCAUAAGAUAUAGUCGGACCUCUCCUUAAUGGGAGCUAGCGGAUGAAGUGAUGCAACACUGGAGCCGCUGGGAACUAAUUUGUAUGCGAAAGUAUAUUGAUUAGUUUUGGAGUACUCGUGGUCG
Procedure, shortened: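 The eight P1ex-region nucleotides of an intron in the knt kanamycin-resistance gene on pET-22b(+) were all randomised and the library put into E. coli BL21(DE3). Six replicate transformations were grown overnight at 37°C or 30°C on LB agar with or without 25 μg/mL kanamycin, together with 100 μg/mL carbenicillin, 50 μM IPTG and 0.2% rhamnose. Colonies were pooled and amplicon-sequenced on an Illumina HiSeq 2500. Fitness from DiMSum is the error-weighted combination of wild-type-normalised replicate fold changes, kanamycin over none.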

| Sequence | self-splicing fitness (ln) (30 °C) | self-splicing fitness (ln) (37 °C) |
| --- | --- | --- |
| AAGAAGCAAUAUUACGGGGG | -2.79 ± 0.21 | -2.09 ± 0.23 |
| AAGAAGCAAUAUUACGGUAG | -3.76 ± 0.19 | -1.83 ± 0.17 |
| AAGAAGCAAUAUUACGGUUG | -2.72 ± 0.092 | -1.32 ± 0.11 |
| AAGAAGCAAUAUUACGUAAC | -2.35 ± 0.14 | -1.2 ± 0.12 |
| AAGAAGCAAUAUUACGUACG | -0.925 ± 0.092 | -0.719 ± 0.11 |
| AAGAAGCAAUAUUACGUCAC | -3.46 ± 0.21 | -3 ± 0.28 |
| AAGAAGCAAUAUUACGUGCG | -0.93 ± 0.079 | -0.0711 ± 0.1 |
| AAGAAGCAAUAUUACGUUAC | -3.33 ± 0.17 | -3.57 ± 0.25 |
| AAGAAGCAAUAUUACGUUCU | -2.55 ± 0.11 | -1.26 ± 0.1 |
| AAGCAGCAAUAUUACGAAGA | -3.03 ± 0.19 | -1.44 ± 0.097 |
| AAGCAGCAAUAUUACGACCC | -1.78 ± 0.14 | -0.112 ± 0.15 |
| AAGCAGCAAUAUUACGACGC | -0.811 ± 0.092 | -0.525 ± 0.13 |
| AAGCAGCAAUAUUACGACUC | -0.122 ± 0.097 | 0.677 ± 0.13 |
| AAGCAGCAAUAUUACGAGUG | -2.99 ± 0.1 | -2.69 ± 0.11 |
| AAGCAGCAAUAUUACGAUUG | -2.54 ± 0.13 | -1.9 ± 0.14 |
| AAGCAGCAAUAUUACGCAAC | -2.62 ± 0.12 | -1.49 ± 0.13 |
| AAGCAGCAAUAUUACGCACA | -0.331 ± 0.082 | 0.0315 ± 0.11 |
| AAGCAGCAAUAUUACGGACG | -2.62 ± 0.14 | -0.565 ± 0.14 |
| AAGCAGCAAUAUUACGGACU | -0.985 ± 0.078 | -0.121 ± 0.11 |
| AAGCAGCAAUAUUACGGAGC | -3.81 ± 0.37 | -3.05 ± 0.23 |
| AAGCAGCAAUAUUACGGGCU | -1.64 ± 0.14 | -1.93 ± 0.21 |
| AAGCAGCAAUAUUACGGGUG | -3.43 ± 0.13 | -1.85 ± 0.1 |
| AAGCAGCAAUAUUACGGUAA | -1.25 ± 0.091 | -0.944 ± 0.094 |
| AAGCAGCAAUAUUACGGUCA | -1.19 ± 0.088 | 0.242 ± 0.1 |
| AAGCAGCAAUAUUACGUACA | -1.43 ± 0.091 | -0.617 ± 0.11 |
| AAGCAGCAAUAUUACGUAUC | -3.07 ± 0.1 | -1.62 ± 0.12 |

| Sequence | self-splicing fitness (ln) (30 °C) | self-splicing fitness (ln) (37 °C) |
| --- | --- | --- |
| AAGCAGCAAUAUUACGUCCG | -2.15 ± 0.12 | -1.13 ± 0.11 |
| AAGCAGCAAUAUUACGUGAA | -1.35 ± 0.067 | -1.05 ± 0.077 |
| AAGCAGCAAUAUUACGUGAG | -1.07 ± 0.045 | -0.437 ± 0.066 |
| AAGCAGCAAUAUUACGUUAC | -3.42 ± 0.29 | -1.35 ± 0.18 |
| AAGCAGCAAUAUUACGUUCC | -1.73 ± 0.11 | -1.54 ± 0.17 |
| AAGGAGCAAUAUUACGACGC | -4.09 ± 0.43 | -1.13 ± 0.21 |
| AAGGAGCAAUAUUACGACUA | -1.51 ± 0.17 | -0.705 ± 0.27 |
| AAGGAGCAAUAUUACGAGCA | -2.24 ± 0.45 | -0.592 ± 0.4 |
| AAGGAGCAAUAUUACGAUCA | -1.18 ± 0.36 |  |
| AAGGAGCAAUAUUACGAUCC |  | 0.127 ± 0.31 |
| AAGGAGCAAUAUUACGCCGC |  | -2.04 ± 0.5 |
| AAGGAGCAAUAUUACGCGAU | -2.06 ± 0.15 | -2.29 ± 0.28 |
| AAGGAGCAAUAUUACGCUAU | -3.76 ± 0.4 | -1.69 ± 0.26 |
| AAGGAGCAAUAUUACGGAUG | -3.8 ± 0.21 | -3.29 ± 0.35 |
| AAGGAGCAAUAUUACGGCCC | -2.25 ± 0.26 | -1.37 ± 0.34 |
| AAGGAGCAAUAUUACGGGAC | -2.34 ± 0.23 | -2.36 ± 0.41 |
| AAGGAGCAAUAUUACGGUCC | -2.13 ± 0.18 | -2.03 ± 0.27 |
| AAGGAGCAAUAUUACGUAAU | -3.8 ± 0.16 | -2.27 ± 0.15 |
| AAGGAGCAAUAUUACGUCUA | -0.839 ± 0.24 | -0.933 ± 0.27 |
| AAGGAGCAAUAUUACGUGGC | -3.79 ± 0.19 | -2.37 ± 0.2 |
| AAGUAGCAAUAUUACGAGCG | -0.709 ± 0.14 | -1.11 ± 0.19 |
| AAGUAGCAAUAUUACGAUAG | -2.72 ± 0.16 | -2.64 ± 0.36 |
| AAGUAGCAAUAUUACGAUCG | -1.43 ± 0.1 | -0.453 ± 0.15 |
| AAGUAGCAAUAUUACGCAUC | -3.84 ± 0.47 | -1.08 ± 0.23 |
| AAGUAGCAAUAUUACGCCAG | -2.64 ± 0.21 | -0.996 ± 0.24 |
| AAGUAGCAAUAUUACGCUAG | -1.57 ± 0.17 | -1.04 ± 0.2 |

| Sequence | self-splicing fitness (ln) (30 °C) | self-splicing fitness (ln) (37 °C) |
| --- | --- | --- |
| AAGUAGCAAUAUUACGCUGC |  | -0.747 ± 0.19 |
| AAGUAGCAAUAUUACGGAAU | -3.66 ± 0.2 | -1.52 ± 0.16 |
| AAGUAGCAAUAUUACGGAUC | -1.17 ± 0.083 | -0.819 ± 0.12 |
| AAGUAGCAAUAUUACGGCCG | -1.34 ± 0.12 | -0.293 ± 0.18 |
| AAGUAGCAAUAUUACGGCUA | -1.01 ± 0.085 | -0.475 ± 0.095 |
| AAGUAGCAAUAUUACGGCUC | -0.15 ± 0.12 | 0.32 ± 0.15 |
| AAGUAGCAAUAUUACGGUAA | -1.12 ± 0.17 | -0.903 ± 0.13 |
| AAGUAGCAAUAUUACGUAAA | -1.09 ± 0.095 | -0.434 ± 0.14 |
| AAGUAGCAAUAUUACGUAAG | -2.48 ± 0.13 | -1.43 ± 0.14 |
| AAGUAGCAAUAUUACGUACC | -0.997 ± 0.16 | -0.0515 ± 0.15 |
| AAGUAGCAAUAUUACGUACG | -1.29 ± 0.088 | -0.0022 ± 0.11 |
| AAGUAGCAAUAUUACGUCUA | -0.618 ± 0.09 | 0.263 ± 0.1 |
| AAGUAGCAAUAUUACGUGCG | -1.48 ± 0.12 | -0.495 ± 0.15 |
| AAGUAGCAAUAUUACGUGUG | -2.07 ± 0.099 | -1.15 ± 0.094 |
| AAUAAGCAAUAUUACGAAAG | -3.68 ± 0.27 | -1.37 ± 0.22 |
| AAUAAGCAAUAUUACGAACC | -1.33 ± 0.15 | -0.414 ± 0.18 |
| AAUAAGCAAUAUUACGAAGA | -1.52 ± 0.26 | -1.92 ± 0.32 |
| AAUAAGCAAUAUUACGAAUC | -2.45 ± 0.21 | -0.866 ± 0.23 |
| AAUAAGCAAUAUUACGACGC | -0.19 ± 0.093 | 0.0933 ± 0.12 |
| AAUAAGCAAUAUUACGACGG | -2.35 ± 0.15 | -1.34 ± 0.19 |
| AAUAAGCAAUAUUACGACUA | -0.696 ± 0.12 | -0.486 ± 0.093 |
| AAUAAGCAAUAUUACGAGCG | -1.5 ± 0.15 | -0.155 ± 0.17 |
| AAUAAGCAAUAUUACGAUCG | -1 ± 0.081 | -0.0681 ± 0.096 |
| AAUAAGCAAUAUUACGCACC | -0.414 ± 0.13 | 0.346 ± 0.13 |
| AAUAAGCAAUAUUACGCAGG | -1.85 ± 0.14 | -2.12 ± 0.15 |

— the supplement of paper PMC7877785
